Reference: patent US20220306759A1 (CYTOMX THERAPEUTICS, published 2022)

Key:
[1] = biological target: T1, human CD71 (transferrin receptor protein 1, TfR1) on human cell lines (human, UniProt P02786 1-760); assay: FACS on BxPC3 cells
T1 construct: whole, on cells; also called huCD71

[2] = biological target: T1, human CD71 (transferrin receptor …); assay: FACS on FaDu cells
Protocol: (§1) In this study, the binding of the antibodies of the present disclosure to the indicated cell lines were performed using a standard FACS labelling method.

[3] = biological target: T1, human CD71 (transferrin receptor …); assay: FACS on HT29 cells
Protocol: as §1

[4] = biological target: T1, human CD71 (transferrin receptor …); assay: FACS on H292 cells
Protocol: as §1

[5] = biological target: T1, human CD71 (transferrin receptor …); assay: FACS on H292 cells; remark: listed apart in the source
Protocol: In this study, the binding of the antibodies of the present disclosure to the indicated cell lines were performed using a standard FACS labelling method. […] These activatable antibodies include the light chain of the correspondingly named sequence listed above in Table C. The cells were labeled with the indicated test article at the indicated concentrations and subsequently detected with an Alexa Fluor 647 labeled goat anti-human IgG secondary antibody.

[6] = biological target: T1, human CD71 (transferrin receptor …); assay: FACS on BxPC3 cells; remark: listed apart in the source
Protocol: as §1

[7] = biological target: T1, human CD71 (transferrin receptor …); assay: FACS on DMS 79 cells
Protocol: (§2) In this study, the binding of the antibodies and ADCs of the present disclosure to the indicated cell lines were performed using a standard FACS labelling method.

[8] = biological target: T1, human CD71 (transferrin receptor …); assay: FACS on HCC1806 cells
Protocol: as §1

[9] = biological target: T1, human CD71 (transferrin receptor …); assay: FACS on DMS 153 cells
Protocol: as §2

[10] = biological target: T1, human CD71 (transferrin receptor …); assay: FACS on MDA MB 231 cells
Protocol: as §1

[11] = biological target: T1, human CD71 (transferrin receptor …); assay: FACS on MDA MB 231 cells; remark: listed apart in the source
Protocol: as §1

[12] = biological target: T2, recombinant human CD71 protein (human, UniProt P02786 89-760); assay: ELISA, 1 µg/mL CD71 on nickel plates
T2 construct: also called recombinant CD71
T2 sequence (P02786 89-760 limits assumed): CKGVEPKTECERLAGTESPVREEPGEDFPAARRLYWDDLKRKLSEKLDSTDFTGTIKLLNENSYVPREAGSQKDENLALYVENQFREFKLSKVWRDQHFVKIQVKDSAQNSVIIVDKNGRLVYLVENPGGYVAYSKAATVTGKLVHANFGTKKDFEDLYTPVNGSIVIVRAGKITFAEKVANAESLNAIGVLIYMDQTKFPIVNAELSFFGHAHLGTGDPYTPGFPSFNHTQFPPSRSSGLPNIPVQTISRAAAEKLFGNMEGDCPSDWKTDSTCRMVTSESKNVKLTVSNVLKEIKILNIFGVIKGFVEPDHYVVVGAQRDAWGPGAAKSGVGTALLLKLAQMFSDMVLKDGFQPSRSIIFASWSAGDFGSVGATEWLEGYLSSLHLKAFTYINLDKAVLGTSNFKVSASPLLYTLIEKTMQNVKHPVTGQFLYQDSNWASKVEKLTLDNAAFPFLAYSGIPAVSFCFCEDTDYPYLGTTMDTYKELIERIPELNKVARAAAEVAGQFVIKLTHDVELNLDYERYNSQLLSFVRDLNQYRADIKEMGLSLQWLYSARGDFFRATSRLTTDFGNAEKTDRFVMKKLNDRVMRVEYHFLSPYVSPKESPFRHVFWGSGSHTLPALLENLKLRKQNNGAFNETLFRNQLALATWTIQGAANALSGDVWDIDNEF

[13] = biological target: T2, recombinant human CD71 protein; assay: ELISA, 1 µg/mL recombinant human CD71
Protocol: (§3) The amount of bound antibody was detected by incubation and detection by goat anti-human antibody conjugated to horseradish peroxidase and Ultra TMB (Thermo Fisher Scientific) detection.

[14] = biological target: T2, recombinant human CD71 protein; assay: ELISA, 1 µg/mL CD71 on copper or nickel plates
Protocol: as §3

[15] = biological target: T2, recombinant human CD71 protein; assay: ELISA, 1 µg/mL recombinant human CD71 (second value)
Protocol: as §3

[16] = biological target: T3, cynomolgus monkey CD71 on primary kidney epithelial cells (cynomolgus monkey, UniProt H9EXL1 1-760 (rhesus entry)); assay: FACS on cynomolgus monkey primary kidney epithelial cells
T3 construct: whole, on cells; also called cyno CD71
T3 sequence (chain, as listed by the source): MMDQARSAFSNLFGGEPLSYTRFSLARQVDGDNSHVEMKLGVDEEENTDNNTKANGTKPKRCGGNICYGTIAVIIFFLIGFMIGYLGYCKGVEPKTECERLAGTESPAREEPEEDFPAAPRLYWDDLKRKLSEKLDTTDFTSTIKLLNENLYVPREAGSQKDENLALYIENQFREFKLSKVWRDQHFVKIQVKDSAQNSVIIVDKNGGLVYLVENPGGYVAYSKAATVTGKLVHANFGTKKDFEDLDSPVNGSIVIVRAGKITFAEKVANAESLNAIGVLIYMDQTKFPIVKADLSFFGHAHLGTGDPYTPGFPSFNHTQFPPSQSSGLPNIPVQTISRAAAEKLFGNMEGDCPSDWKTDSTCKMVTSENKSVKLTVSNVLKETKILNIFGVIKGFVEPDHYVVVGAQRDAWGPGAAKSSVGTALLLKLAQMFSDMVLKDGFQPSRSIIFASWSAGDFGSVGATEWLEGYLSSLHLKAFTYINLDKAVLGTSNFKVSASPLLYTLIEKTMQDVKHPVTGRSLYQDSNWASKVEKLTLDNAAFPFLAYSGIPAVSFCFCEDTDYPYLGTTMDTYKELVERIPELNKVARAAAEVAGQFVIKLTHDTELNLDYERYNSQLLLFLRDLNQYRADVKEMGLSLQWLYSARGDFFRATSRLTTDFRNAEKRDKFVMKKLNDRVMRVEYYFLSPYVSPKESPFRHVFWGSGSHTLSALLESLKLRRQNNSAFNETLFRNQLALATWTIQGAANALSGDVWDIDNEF
Protocol: In this study, the binding of the antibody of the present disclosure to the cells were performed using a standard FACS labelling method.

[17] = biological target: recombinant mouse CD71 (mouse, UniProt Q62351 89-763, limits assumed); assay: ELISA, recombinant CD71 (1 µg/mL) on plates, anti-human IgG-HRP
recombinant mouse CD71, sequence (Q62351 89-763 limits assumed): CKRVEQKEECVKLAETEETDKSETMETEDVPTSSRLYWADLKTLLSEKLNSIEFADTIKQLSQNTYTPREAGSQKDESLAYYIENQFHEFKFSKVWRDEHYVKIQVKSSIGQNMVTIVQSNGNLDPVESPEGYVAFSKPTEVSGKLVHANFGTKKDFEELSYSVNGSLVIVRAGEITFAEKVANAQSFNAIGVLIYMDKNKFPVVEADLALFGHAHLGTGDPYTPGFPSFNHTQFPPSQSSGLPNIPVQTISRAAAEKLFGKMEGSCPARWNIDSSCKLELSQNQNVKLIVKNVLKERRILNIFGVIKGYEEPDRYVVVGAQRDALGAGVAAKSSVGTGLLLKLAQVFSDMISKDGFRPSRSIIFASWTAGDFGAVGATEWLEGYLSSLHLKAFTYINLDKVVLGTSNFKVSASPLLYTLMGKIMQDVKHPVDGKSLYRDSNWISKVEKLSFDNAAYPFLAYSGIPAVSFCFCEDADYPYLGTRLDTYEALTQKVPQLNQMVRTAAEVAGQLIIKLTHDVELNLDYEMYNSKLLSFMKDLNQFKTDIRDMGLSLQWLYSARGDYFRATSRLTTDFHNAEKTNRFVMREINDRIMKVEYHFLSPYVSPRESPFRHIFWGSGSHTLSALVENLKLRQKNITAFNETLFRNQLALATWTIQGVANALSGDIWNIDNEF

T1 sequence (P02786 whole entry): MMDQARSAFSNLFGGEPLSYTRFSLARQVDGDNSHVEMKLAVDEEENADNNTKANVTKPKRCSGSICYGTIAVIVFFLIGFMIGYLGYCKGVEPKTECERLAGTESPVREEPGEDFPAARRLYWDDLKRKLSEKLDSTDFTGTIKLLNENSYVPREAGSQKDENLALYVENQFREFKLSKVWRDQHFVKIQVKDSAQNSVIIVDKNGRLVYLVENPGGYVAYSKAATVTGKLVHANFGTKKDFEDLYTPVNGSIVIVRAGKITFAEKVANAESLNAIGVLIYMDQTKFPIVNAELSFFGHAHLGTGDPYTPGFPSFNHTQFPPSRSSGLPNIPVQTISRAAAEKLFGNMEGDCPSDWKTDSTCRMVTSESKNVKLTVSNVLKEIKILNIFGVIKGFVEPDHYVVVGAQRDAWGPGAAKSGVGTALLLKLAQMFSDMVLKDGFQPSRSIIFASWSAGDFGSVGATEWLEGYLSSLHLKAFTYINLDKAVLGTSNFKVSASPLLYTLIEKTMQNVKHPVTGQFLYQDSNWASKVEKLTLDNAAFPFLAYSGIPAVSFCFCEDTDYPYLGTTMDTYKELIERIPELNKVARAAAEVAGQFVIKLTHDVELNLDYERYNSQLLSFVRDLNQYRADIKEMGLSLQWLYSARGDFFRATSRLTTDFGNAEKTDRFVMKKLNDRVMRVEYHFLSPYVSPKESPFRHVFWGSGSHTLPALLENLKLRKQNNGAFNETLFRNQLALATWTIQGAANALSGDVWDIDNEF

B1: Ab21.12 LcB:HcC (antibody, human IgG1, kappa)
heavy: not shown
light: DIQMTQSPSSLSASVGDRVTITCSASSSVYYMYWFQQKPGKAPKLWIYSTSNLASGVPSRFSGSGSGTDYTLTISSMQPEDFATYYCQQRRNYPYTFGQGTKLEIKRTVAAPSVFIFPPSDEQLKSGTASVVCLLNNFYPREAKVQWKVDNALQSGNSQESVTEQDSKDSTYSLSSTLTLSKADYEKHKVYACEVTHQGLSSPVTKSFNRGEC
B1 showed a Kd [1] of ~3000 pM, a Kd [2] of 390 pM and a Kd [3] of 510 pM. For the same binder, the “Bmax (MFI)” value [4] was 1820 MFI, the Kd [4] was 1530 pM and the Kd [5] was 441 pM. For the same binder, the Kd [6] was 810 pM, the Kd [7] was 898 pM and the Kd [8] was 5000 pM. For the same binder, the Kd [9] was 4470 pM, the Kd [10] was 840 pM and the Kd [11] was 1030 pM. For the same binder, the Kd [12] was 300 pM, the Kd [13] was 255 pM and the Kd [14] was 140 pM. The Kd [15] was 162 pM, the Kd [16] was ~3000 pM and the binding result [17] was “no binding”.
